Test results taken from publication PMC4477663 (Nucleic Acids Research, 2015).

Tests used:
Test in all cases: pull-down
[1] = biological target: recombinant APE1 C65S+C99S (UniProt P27695 1-318, C65S | C99S)
recombinant APE1 C65S = recombinant APE1 C65S (UniProt P27695 1-318, C65S)
recombinant APE1 C99S = recombinant APE1 C99S (UniProt P27695 1-318, C99S)

Measured: binding result

Chain of recombinant APE1 C99S (P27695 whole entry C99S): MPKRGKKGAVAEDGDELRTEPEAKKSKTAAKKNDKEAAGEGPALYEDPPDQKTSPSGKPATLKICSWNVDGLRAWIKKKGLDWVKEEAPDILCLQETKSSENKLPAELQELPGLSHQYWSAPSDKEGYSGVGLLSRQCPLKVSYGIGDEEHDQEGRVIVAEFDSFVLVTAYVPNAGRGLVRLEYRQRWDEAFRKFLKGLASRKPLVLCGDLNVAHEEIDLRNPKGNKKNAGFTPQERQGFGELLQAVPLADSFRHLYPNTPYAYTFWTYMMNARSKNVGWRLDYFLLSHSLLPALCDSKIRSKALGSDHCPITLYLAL
Chain of recombinant APE1 C65S+C99S (P27695 whole entry C65S/C99S): as the sequence (P27695 whole entry C99S) above, with C65S counted along it
Chain of recombinant APE1 C65S (P27695 whole entry C65S): as the sequence (P27695 whole entry C99S) above, with C65S, S99C counted along it

B1: recombinant GST-Mia40 wild type (natural protein, human, UniProt Q8N4Q1 1-142, looked up)
chain: MSYCRQEGKDRIIFVTKEDHETPSSAELVADDPNDPYEEHGLILPNGNINWNCPCLGGMASGPCGEQFKSAFSCFHYSTEEIKGSDCVDQFRAMQECMQKYPDLYPQEDEDEEEEREKKPAEQAEETAPIEATATKEEEGSS
binds: [1] | recombinant APE1 C65S | recombinant APE1 C99S
